# Test results as given in paper PMC11507936.
# Biological target: non-structural protein 3 (Nsp3) ubiquitin-like domain 1 (Ubl1), 1-111
substance,measurement,value
Nucleocapsid protein (N) (from UniProt P0DTC9),other: partition coefficient,weaker; reference 12.6 ± 0.1
